Measured values published in patent US20240287163A1 (Chugai, published 2024).
Where a chain is given by its changes, count along the chain named.

T1: recombinant cynomolgus C1r2s2 tetramer (cynomolgus monkey, limits assumed)
T1 construct: also called cyC1r2s2; monkey C1r2s2
T1 chain 1: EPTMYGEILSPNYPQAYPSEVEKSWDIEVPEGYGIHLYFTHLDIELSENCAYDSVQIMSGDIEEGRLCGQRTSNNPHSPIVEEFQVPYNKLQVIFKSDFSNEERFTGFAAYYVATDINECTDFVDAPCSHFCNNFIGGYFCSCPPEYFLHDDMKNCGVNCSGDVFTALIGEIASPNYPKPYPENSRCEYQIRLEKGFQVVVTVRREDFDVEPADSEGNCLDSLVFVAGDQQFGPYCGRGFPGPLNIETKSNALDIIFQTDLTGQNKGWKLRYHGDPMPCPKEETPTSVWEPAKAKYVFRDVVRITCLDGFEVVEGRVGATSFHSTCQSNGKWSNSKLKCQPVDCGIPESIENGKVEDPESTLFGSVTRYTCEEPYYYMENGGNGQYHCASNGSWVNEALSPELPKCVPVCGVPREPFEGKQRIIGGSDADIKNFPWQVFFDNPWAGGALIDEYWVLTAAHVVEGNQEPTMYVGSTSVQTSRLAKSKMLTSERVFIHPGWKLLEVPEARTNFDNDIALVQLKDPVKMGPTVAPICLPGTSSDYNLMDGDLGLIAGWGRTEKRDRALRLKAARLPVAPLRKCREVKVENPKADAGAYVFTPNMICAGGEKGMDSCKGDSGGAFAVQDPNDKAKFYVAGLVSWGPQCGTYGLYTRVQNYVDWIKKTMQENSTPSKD
T1 chain 2: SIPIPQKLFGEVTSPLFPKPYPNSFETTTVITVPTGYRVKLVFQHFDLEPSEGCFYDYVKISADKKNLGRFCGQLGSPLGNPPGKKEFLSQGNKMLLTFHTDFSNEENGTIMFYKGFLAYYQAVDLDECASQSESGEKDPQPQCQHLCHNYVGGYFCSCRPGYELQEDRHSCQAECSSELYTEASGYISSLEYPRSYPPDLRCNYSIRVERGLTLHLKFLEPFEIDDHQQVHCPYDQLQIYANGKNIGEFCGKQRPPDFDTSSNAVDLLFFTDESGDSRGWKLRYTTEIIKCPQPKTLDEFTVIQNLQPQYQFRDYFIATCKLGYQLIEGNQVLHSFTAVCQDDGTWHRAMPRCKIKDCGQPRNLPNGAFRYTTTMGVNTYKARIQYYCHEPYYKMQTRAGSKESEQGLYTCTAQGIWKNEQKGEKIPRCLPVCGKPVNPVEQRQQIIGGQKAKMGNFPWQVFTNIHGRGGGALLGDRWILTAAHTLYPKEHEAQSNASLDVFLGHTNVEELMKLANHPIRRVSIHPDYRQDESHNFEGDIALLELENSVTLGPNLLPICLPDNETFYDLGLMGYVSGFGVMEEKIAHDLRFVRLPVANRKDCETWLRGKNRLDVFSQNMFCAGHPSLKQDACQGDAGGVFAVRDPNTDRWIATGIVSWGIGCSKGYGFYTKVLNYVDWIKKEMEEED

T2: recombinant human C1r2s2 tetramer (human, UniProt P09871 16-688; P00736 18-705)
T2 construct: C1s and C1r co-expressed in HEK293 and purified from the supernatant as tetramer; also called hC1r2s2
T2 chain 1: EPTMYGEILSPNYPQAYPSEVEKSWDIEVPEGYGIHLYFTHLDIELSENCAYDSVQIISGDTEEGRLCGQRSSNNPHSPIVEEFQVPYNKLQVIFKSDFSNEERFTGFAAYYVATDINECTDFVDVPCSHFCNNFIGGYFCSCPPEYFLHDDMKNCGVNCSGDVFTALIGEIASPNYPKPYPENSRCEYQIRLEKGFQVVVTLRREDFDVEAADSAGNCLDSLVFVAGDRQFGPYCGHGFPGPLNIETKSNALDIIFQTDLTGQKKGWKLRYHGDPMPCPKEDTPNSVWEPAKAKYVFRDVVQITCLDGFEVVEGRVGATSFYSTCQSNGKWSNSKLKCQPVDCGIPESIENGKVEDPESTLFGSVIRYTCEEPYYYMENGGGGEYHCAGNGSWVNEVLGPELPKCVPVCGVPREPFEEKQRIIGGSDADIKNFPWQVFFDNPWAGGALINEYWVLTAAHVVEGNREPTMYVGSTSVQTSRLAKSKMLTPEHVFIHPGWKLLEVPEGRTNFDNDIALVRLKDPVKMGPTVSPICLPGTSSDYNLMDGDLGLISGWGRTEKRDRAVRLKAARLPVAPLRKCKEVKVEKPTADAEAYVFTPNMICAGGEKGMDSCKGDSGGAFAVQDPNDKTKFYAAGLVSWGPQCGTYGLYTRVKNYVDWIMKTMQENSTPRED
T2 chain 2: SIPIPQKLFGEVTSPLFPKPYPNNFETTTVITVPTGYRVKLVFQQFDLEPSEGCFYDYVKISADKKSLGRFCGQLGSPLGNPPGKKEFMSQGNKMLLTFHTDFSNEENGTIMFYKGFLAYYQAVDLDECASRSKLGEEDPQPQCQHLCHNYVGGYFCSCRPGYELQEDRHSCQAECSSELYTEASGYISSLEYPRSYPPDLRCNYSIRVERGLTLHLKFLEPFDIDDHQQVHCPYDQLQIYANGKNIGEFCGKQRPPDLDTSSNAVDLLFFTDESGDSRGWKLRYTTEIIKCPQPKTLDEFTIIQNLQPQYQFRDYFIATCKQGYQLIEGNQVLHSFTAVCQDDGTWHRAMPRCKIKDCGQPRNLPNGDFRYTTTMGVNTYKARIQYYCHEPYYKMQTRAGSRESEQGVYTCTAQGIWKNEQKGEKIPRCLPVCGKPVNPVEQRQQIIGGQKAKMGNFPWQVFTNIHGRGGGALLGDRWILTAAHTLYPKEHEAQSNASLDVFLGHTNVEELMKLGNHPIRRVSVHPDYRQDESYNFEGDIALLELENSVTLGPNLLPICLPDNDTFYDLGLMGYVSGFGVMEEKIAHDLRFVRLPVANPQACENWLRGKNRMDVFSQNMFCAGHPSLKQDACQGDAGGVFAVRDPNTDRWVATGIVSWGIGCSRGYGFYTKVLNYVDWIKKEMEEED

B1: COS0637pHv17-G1A3FcgSil+LowpI (antibody, V domains shown)
VH: QVQLVESGGGVVQPGRSLRLSCAASGFTFSAYAMNWIRQPPGKGLEWIGLIYGSGHEFYASWAEERVTISVDTSKNQFSLKLSSVTAADTAVYYCARGRSKNYNSDFHLWGQGTLVTVSS
VL: DIQMTQSPSSLSASVGDRVTITCQAHEILHDKKNLAWYQQKPGQPPKLLIYGASQRESGVPSRFSGSGSGTDFTLTISSLQPEDFATYYCHGEFPHSSADLNHFGQGTKVEIKR
notes: VH 24, VL 55, CH 45, CL 23
B2: COS0637pHv15-G1A3FcgSil+LowpI (antibody, V domains shown)
VH: B1 VH
VL: B1 VL with H26N, Q55T, R56L, P95S, H96Y, S97H, H103T
notes: VH 24, VL 59, CH 45 (G1A3FcgSil+LowpI), CL 23
B3: COS0637pHv8-G1A3FcgSil+LowpI (antibody)
heavy: QVQLVESGGGVVQPGRSLRLSCAASGFTFSAYAMNWIRQPPGKGLEWIGLIYGSGHEFYASWAEERVTISVDTSKNQFSLKLSSVTAADTAVYYCARGRSKNYNSDFHLWGQGTLVTVSSASTKGPSVFPLAPSSRSTSESTAALGCLVKDYFPEPVTVSWNSGALTSGVHTFPAVLQSSGLYSLSSVVTVPSSSLGTQTYICNVNHKPSNTKVDKRVEPKSCDKTHTCPPCPAPELRRGPSVFLFPPKPKDTLMISRTPEVTCVVVDVSQEDPEVQFNWYVDGVEVHNAKTKPREEQYNSTYRVVSVLTVLHQDWLNGKEYKCKVSNKALPAPIEKTISKAKGQPREPQVYTLPPSQEEMTKNQVSLTCLVKGFYPSDIAVEWESNGQPENNYKTTPPVLDSDGSFFLYSKLTVDKSRWQEGNVFSCSVLHEALHAHTTRKELSLSP
light: DIQMTQSPSSLSASVGDRVTITCQANQILHDKKNLAWYQQKPGQPPKLLIYGASTLESGVPSRFSGSGSGTDFTLTISSLQPEDFATYYCHGEFSYSSADLNTFGQGTKVEIKRTVAAPSVFIFPPSDEQLKSGTASVVCLLNNFYPREAKVQWKVDNALQSGNSQESVTEQDSKDSTYSLSSTLTLSKADYEKHKVYACEVTHQGLSSPVTKSFNRGEC
notes: built from VH+CH and VL+CL
B4: COS0637pHv16-G1A3FcgSil+LowpI (antibody, V domains shown)
VH: B1 VH with A33T
VL: B1 VL
notes: VH 36, VL 55, CH 45, CL 23
B5: COS0637pHv21-G1A3FcgSil+LowpI (antibody, V domains shown)
VH: B1 VH
VL: B1 VL with G52S, Q55I, R56L, P95S, S97G, A99G
notes: VH 24, VL 47, CH 45, CL 23
B6: COS0637pHv8-TT91R (antibody, human IgG1)
heavy: QVQLVESGGGVVQPGRSLRLSCAASGFTFSAYAMNWIRQPPGKGLEWIGLIYGSGHEFYASWAEERVTISVDTSKNQFSLKLSSVTAADTAVYYCARGRSKNYNSDFHLWGQGTLVTVSSASTKGPSVFPLAPSSKSTSGGTAALGCLVKDYFPEPVTVSWNSGALTSGVHTFPAVLQSSGLYSLSSVVTVPSSSLGTQTYICNVNHKPSNTKVDKRVEPKSCDKTHTCPPCPAPEYLGGDSVFLFPPKPKDVLMISRTPEVTCVVIDVSHEDPEVKFNWYVDGVEVHNAKTKPREEQYNSTYRVVSVLPVLHRDWLNGKEYKCKVSNKALPKPIEKTISKAKGQRREPQVYTLPPSREEMTKNQVSLTCLVKGFYPSDIAVEWESNGQPENNYKTTPPVLDSDGSFFLYSKLTVDKSRWQQGNVFSCSVLHEALHAHTTRKELSLSP
light: B3 light
notes: also called COS637pHv8-TT91R

Target: T1, recombinant cynomolgus C1r2s2 tetramer
Test: SPR (Biacore T200), 37 C; ratio of KD at pH 6.0 to KD at pH 7.4
Description: (§1) The binding property of each sample at pH7.4 and pH6.0 was determined at 37° C. using BIACORE® T200 instrument (Cytiva). […] 20 mM ACES, 150 mM NaCl, 1.2 mM CaCl₂, 1 mg/mL BSA (not containing IgG), 1 mg/mL CMD, 0.05% Tween® 20, 0.005 w/v % NaN₃, pH7.4 or pH6.0 buffer was used as the running buffer. […] The antibody solution was added thereto at 30 μL/min for 120 seconds, the running buffer was then added at 30 μL/min for 180 seconds, and the dissociation constant (KD) of each antibody for hC1r2s2 and cyC1r2s2 was calculated. […] The sensor surface was regenerated every cycle, using 3 M MgCl2 (prepared in-house). The KD value was calculated using BIACORE® T200 evaluation software version 2.0 (Cytiva). The binding strengths under each pH condition were compared by dividing the KD value at pH6.0 with the KD value at pH7.4.

Row | Binder | KD (pH 6.0)/KD (pH 7.4)
1 | B1 | 421
2 | B2 | 226
3 | B3 | 83
4 | B4 | 465
5 | B5 | 182
6 | B6 | 67.5

Target: T2, recombinant human C1r2s2 tetramer
Test: as above
Description: as §1

Row | Binder | KD (pH 6.0)/KD (pH 7.4)
7 | B1 | 143
8 | B2 | 797
9 | B3 | 71
10 | B4 | 161
11 | B5 | 120
12 | B6 | 50.2

Target: T1, recombinant cynomolgus C1r2s2 tetramer
Test: SPR (Biacore T200), 37 C, pH 6.0; cyC1r2s2 captured by IPN009, antibody as analyte
Description: as §1

Row | Binder | Kd
13 | B1 | 106 nM
14 | B2 | 111 nM
15 | B3 | 30.3 nM
16 | B4 | 91.2 nM
17 | B5 | 62.9 nM
18 | B6 | 23.3 nM

Target: T2, recombinant human C1r2s2 tetramer
Test: SPR (Biacore T200), 37 C, pH 7.4; hC1r2s2 captured by IPN009, antibody as analyte
Description: as §1

Row | Binder | Kd
19 | B1 | 0.23 nM
20 | B2 | 0.399 nM
21 | B3 | 0.272 nM
22 | B4 | 0.181 nM
23 | B5 | 0.26 nM
24 | B6 | 0.249 nM

Target: T1, recombinant cynomolgus C1r2s2 tetramer
Test: SPR (Biacore T200), 37 C, pH 7.4; cyC1r2s2 captured by IPN009, antibody as analyte
Description: as §1

Row | Binder | Kd
25 | B1 | 0.252 nM
26 | B2 | 0.492 nM
27 | B3 | 0.365 nM
28 | B4 | 0.196 nM
29 | B5 | 0.346 nM
30 | B6 | 0.345 nM

Target: T2, recombinant human C1r2s2 tetramer
Test: SPR (Biacore T200), 37 C, pH 6.0; hC1r2s2 captured by IPN009, antibody as analyte
Description: as §1

Row | Binder | Kd
31 | B1 | 32.9 nM
32 | B2 | 318 nM
33 | B3 | 19.3 nM
34 | B4 | 29.2 nM
35 | B5 | 31.3 nM
36 | B6 | 12.5 nM
